Among the targets are FGFR3 (human, UniProt P22607 23-806); CDK6 (human, UniProt Q00534 1-326); STK38 (human, UniProt Q15208 1-465); LCK (human, UniProt P06239 1-509).
What all share (assay): LUMIER with BACON

LCK, sequence (P06239 whole entry): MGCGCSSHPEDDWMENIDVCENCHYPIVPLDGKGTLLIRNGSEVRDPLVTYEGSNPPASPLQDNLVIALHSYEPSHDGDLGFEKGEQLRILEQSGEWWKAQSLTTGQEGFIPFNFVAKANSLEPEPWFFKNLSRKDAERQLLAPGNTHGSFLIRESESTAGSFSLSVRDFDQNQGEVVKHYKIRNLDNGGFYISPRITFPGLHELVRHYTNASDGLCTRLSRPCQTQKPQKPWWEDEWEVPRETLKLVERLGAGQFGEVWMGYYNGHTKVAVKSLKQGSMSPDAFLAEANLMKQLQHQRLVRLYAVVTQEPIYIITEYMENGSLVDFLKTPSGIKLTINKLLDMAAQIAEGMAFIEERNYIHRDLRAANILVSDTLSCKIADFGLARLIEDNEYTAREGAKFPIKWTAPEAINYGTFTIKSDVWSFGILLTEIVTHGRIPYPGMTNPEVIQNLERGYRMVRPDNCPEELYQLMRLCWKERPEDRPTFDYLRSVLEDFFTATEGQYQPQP
FGFR3, sequence (P22607 23-806): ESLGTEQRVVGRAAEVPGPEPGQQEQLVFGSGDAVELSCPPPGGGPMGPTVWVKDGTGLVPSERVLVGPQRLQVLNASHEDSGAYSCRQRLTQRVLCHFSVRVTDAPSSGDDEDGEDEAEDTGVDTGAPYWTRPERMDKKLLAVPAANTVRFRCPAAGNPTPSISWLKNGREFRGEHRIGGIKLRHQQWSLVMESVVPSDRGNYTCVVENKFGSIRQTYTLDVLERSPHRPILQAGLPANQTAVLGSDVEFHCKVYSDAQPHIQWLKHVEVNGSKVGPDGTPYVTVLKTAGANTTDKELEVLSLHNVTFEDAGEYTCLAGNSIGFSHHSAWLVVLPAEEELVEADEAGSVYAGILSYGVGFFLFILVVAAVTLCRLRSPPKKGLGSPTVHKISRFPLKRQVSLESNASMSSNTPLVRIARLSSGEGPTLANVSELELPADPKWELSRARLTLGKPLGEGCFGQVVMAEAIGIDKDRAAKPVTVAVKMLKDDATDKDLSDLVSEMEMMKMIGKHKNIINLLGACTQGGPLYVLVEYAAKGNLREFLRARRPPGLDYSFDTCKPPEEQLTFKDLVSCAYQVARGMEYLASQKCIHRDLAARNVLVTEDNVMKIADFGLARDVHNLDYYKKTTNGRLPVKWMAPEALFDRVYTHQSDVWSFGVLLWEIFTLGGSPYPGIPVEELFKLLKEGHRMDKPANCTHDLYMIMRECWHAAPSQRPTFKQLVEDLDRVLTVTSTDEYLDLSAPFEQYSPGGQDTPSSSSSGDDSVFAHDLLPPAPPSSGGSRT
STK38, sequence (Q15208 whole entry): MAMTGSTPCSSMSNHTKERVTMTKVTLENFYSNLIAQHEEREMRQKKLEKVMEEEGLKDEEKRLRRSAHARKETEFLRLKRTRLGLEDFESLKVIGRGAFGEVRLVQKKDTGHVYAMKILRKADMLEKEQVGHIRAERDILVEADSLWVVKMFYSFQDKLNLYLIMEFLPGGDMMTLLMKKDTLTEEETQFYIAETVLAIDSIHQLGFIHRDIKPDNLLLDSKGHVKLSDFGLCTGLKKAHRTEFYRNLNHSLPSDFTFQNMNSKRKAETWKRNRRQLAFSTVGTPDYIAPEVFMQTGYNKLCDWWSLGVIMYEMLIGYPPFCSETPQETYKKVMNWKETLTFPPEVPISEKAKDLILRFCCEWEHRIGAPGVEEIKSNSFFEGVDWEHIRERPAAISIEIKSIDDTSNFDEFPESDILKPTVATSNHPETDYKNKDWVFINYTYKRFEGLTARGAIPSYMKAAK
CDK6, sequence (Q00534 whole entry): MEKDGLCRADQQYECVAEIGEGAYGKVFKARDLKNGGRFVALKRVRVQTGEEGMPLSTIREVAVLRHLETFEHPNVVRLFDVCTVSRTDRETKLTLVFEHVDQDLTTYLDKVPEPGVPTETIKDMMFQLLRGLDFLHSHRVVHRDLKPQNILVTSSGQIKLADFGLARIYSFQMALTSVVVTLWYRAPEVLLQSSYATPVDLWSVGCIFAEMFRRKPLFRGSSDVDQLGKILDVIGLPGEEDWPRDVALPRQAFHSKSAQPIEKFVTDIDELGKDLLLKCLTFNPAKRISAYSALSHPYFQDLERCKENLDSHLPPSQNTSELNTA

B1: Renilla luciferase-tagged HSP90β (natural protein)
chain: not shown
Take B1: the “half-life of dissociation after 500 nM ganetespib” value with FGFR3 was 29 min; with CDK6 it was about 3 min; in the assay with STK38 it was about 3 min; in the assay with LCK, about 3 min.

The record behind these values is publication PMC3894786 (Cell, 2012).
